Source: patent US20200141935A1, “SYSTEM, METHOD, APPARATUS AND DIAGNOSTIC TEST FOR PREGNANCY” (BARCELONA INSTITUTE FOR GLOBAL HEALTH, priority 2017, published 2020)

Tests used:
[1] = tested on: P. falciparum; test: Prevalence of infection by qPCR at delivery by intermittent preventive treatment group; assay type: in vivo, pregnant women; details: for PCR prevalence of infection (%): by IPTp group
Method: All women included in the study received bed nets treated with long-lasting insecticide. At delivery, HIV serostatus was assessed using a rapid diagnostic test and hemoglobin was determined in capillary blood sample using mobile devices (HemoCue, Hemocontrol and Sysmex KX analyzer). Tissue samples from the maternal side of the placenta, as well as maternal peripheral-, placental-blood samples were collected at delivery. Dried blood spots onto filter paper were prepared (50 ul) and blood was collected into EDTA vacutainers and centrifuged, with the plasma stored at −20° C. […] Clinical malaria episodes were treated according to national guidelines at the time of the study. Biases due to pooling of data from these two clinical trials were minimized by the use of similar protocols and procedures during the two trials. […] P. falciparum infection at delivery was defined if peripheral or placental blood samples were positive by microscopy or qPCR or if histology positive (active or chronic). Infection during pregnancy was defined if peripheral or placental blood samples were positive by microscopy or qPCR at any time-point of collection, if P. falciparum detected by hospital passive case detection (PCD), or if histology positive (active, chronic or past) on the sub-set of women from longitudinal cohort. Seroprevalences between countries (Benin, Gabon and Mozambique for HIV-uninfected and Kenya and Mozambique for HIV-infected), between IPTp intervention group (MQ vs SP for HIV-uninfected and MQ vs Placebo for HIV infected) and anemia status were compared by logistic regression models adjusted by parity, age and treatment.

[2] = tested on: IgG; test: Multiplex bead-based immunoassay (Luminex): IgG levels (nMFI) against antigens, compared between groups; assay type: binding, pregnant women
Source text: (§1) Two multiplex suspension array panels were constructed to quantify IgG responses against P. falciparum recombinant proteins and synthetic peptides, using the xMAP™ technology and the Luminex® 100/200™ System (Luminex® Corp., Austin, Tex.). MagPlex® microspheres (magnetic carboxylated polystyrene microparticles, 5.6 μm) with different spectral signatures were selected for each protein (DBL3X, DBL5ϵ, DBL6ϵ, AMA1 and MSP119), peptides (25 VAR2CSA peptides and pCSP), tetanus toxin and bovine serum albumin (BSA). Antigens were covalently coupled to beads following a modification of the Luminex® Corporation protocol. Protein and peptide multiplex arrays were prepared by pooling together equal volumes of coated beads. Plasma samples or the product of DBS elution were analyzed in duplicate at dilution 1:400 for the protein array and 1:100 for the peptide array. A hyperimmune plasma pool composed by 23 plasmas from malaria infected Mozambican pregnant women (HIP-VAR2CSA) was included in each assay plate, in addition to blanks (wells without sample) to assess background levels. A minimum of 50 microspheres were read per spectral signature and results were exported as crude median fluorescent intensity ([…]). Duplicates were averaged and background MFIs were subtracted. A total of 224 plates were analyzed and the intra-assay variation (mean CV of replicates from 20 plasma samples per plate) ranged from 1.4% to 7.3% for the protein array and from 2.5% to 12.4% for the peptide array. The inter-assay variation (variability of positive pool [HIP-VAR2CSA] between 224 plates) was 5% for the protein array and 26% for the peptide array. Results were normalized (nMFI) to account for plate-to-plate variation by […] the background subtracted MFI of each sample with the value of the positive pool in the same plate and dividing by the median of positive pools in all plates.
(§2) Antibodies were eluted from DBS from Gabon, […] and Kenya, as previously described. Briefly, to achieve a concentration of eluted blood proteins equivalent to a 1:50 plasma dilution antibodies were eluted from four spots of approximately 3 mm in diameter with 200 μl Luminex® assay buffer (1% BSA, 0.05% sodium azide in filtrated PBS [Phosphate-buffered saline]). […]. Controls blood drops were artificially prepared using fresh erythrocytes (blood type 0, assuming a hematocrit approximately of 50%) and freeze plasma from 49 Spanish pregnant women. Filter papers were stored avoiding humidity at −20° C. in Barcelona.
(§3) Presence or absence of antibodies was defined by finite mixture models (FMM) for pregnancy-specific antigens (VAR2CSA peptides and recombinant domains) and by the mean plus 3 standard deviation (SD) of IgG response from pregnant women from Barcelona for general malaria antigens (AMA1, MSP119, and pCSP).
(§4) Data was fitted to a normal distribution by logarithmic transformation of nMFIs. Participant's baseline characteristics and parasitological outcomes were compared between study times and areas by univariate analysis (Fisher's tests for binary outcomes or t-Student test for continuous outcomes). Responses were considered not restricted to malaria when seroprevalences were 5% or high among Spanish pregnant women.
Linear regression models were used to compare antibody levels from Mozambican and Spanish pregnant women. The capacity of antibody levels to mimic malaria trends in Mozambique was analyzed by linear regression models (2010 was compared with 2003-2005 corresponding to a trend of malaria decrease and 2011-2012 with 2010 to a trend of increase) adjusted by treatment, parity, age and HIV.
The impact of P. falciparum infection during pregnancy on antibodies at delivery was assessed in linear regression models adjusted by age, parity, HIV and treatment. Changes in antibody levels due to parasite density (below or above 200) were assessed by linear regression models adjusted by age, parity, HIV and treatment. […]

[3] = tested on: IgG; test: Multiplex bead-based immunoassay: seroprevalence (finite mixture models or negative control cutoff); assay type: binding, pregnant women; details: for Seroprevalence MQ (%): IPTp with mefloquine; for Seroprevalence Non-A (%): non anemia
Source text: as §1, §2, §3, §4
Seroprevalences between countries (Benin, Gabon and Mozambique for HIV-uninfected and Kenya and Mozambique for HIV-infected), between IPTp intervention group (MQ vs SP for HIV-uninfected and MQ vs Placebo for HIV infected) and anemia status were compared by logistic regression models adjusted by parity, age and treatment.
The modification of the associations by HIV infection or parity was assessed by including interaction terms into the regression models.

[4] = tested on: IgG; test: Antibody dynamics during pregnancy (time to double, half-life, sero-reversion) from bead-based immunoassay; assay type: binding, pregnant Mozambican women
Source text: as §1
The adjusted effect of infection on antibody levels was analyzed using log-linear mixed-effects regression models incorporating Gaussian random intercepts. […] Time to double the antibody levels (T2x) and half-lives were calculated in weeks from the estimated rates and the boundaries at 95% confidence interval obtained from mixed-effects models for subjects suffering a P. falciparum infection at follow-up independent of antibody status at recruitment (Ab[−or+]/Pf+) and subjects seropositive at recruitment and no infection detected on follow-up (Ab+/Pf−), respectively. In situations that the increase rate is a negative value (rate below 1) or the decay rate is a positive value (rate above 1), the calculated T2x or half-life was reported as infinity. Similarly, the time to sero-reversion was calculated for these subjects using the ratio of the seropositivity cutoff by the average antibody titers at recruitment as decay, i.e. how many times the average titers need to be reduced to be equal the cutoff.

[5] = HIV uninfected, qPCR in peripheral and placental blood at delivery

sulfadoxine-pyrimethamine [SP]
PCR SP (OR) ([1]; HIV uninfected, SP with MQ as reference): 1.93 (1.28; 2.91) | PCR prevalence of infection (%) [1, 5]: 27%

OC(c1cc(C(F)(F)F)nc2c(C(F)(F)F)cccc12)C1CCCCN1 (stereo not drawn) [MQ, mefloquine]
PCR MQ (OR) ([1]; HIV infected, MQ with Placebo as reference): 0.24 (0.10; 0.59) | PCR prevalence of infection (%) ([1]; HIV infected, qPCR at delivery): 2% | PCR prevalence of infection (%) [1, 5]: 18%

B1: AMA1: recombinant apical membrane antigen 1, from 3D7 strain (protein)
chain: QNYWEHPYQNSDVYRPINEHREHPKEYEYPLHQEHTYQQEDSGEDENTLQHAYPIDHEGAEPAPQEQNLFSSIEIVERSNYMGNPWTEYMAKYDIEEVHGSGIRVDLGEDAEVAGTQYRLPSGKCPVFGKGIIIENSNTTFLTPVATGNQYLKDGGFAFPPTEPLMSPMTLDEMRHFYKDNKYVKNLDELTLCSRHAGNMIPDNDKNSNYKYPAVYDDKDKKCHILYIAAQENNGPRYCNKDESKRNSMFCFRPAKDISFQNYTYLSKNVVDNWEKVCPRKNLQNAKFGLWVDGNCEDIPHVNEFPAIDLFECNKLVFELSASDQPKQYEQHLTDYEKIKEGFKNKNASMIKSAFLPTGAFKADRYKSHGKGYNWGNYNTETQKCEIFNVKPTCLINNSSYIATTALSHPIEVENNFPCSLYKDEIMKEIERESKRIKLNDNDDEGNKKIIAPRIFISDDKDSLKCPCDPEMVSNSTCRFFVCKCVERRAEVTSNNEVVVKEEYKDEYADIPEHKPTYDKMK
Immunoreactivity: recognition by IgGs at levels above BSA recognition ([2]; 641 pregnant Mozambican women 2003-2012, mean nMFI above mean BSA nMFI plus 3 SD): above BSA recognition | Infection during pregnacy Infection vs no-infection ratio (95% CI) ([2]; nMFI at delivery, Mozambican women followed 2011-2012, adjusted): 1.8 (1.30; 2.50) | Parity MG vs PG ratio (95% CI) ([2]; nMFI at delivery, multigravid vs primigravid Mozambican women, adjusted): 1.2 (0.76; 1.9) | Exposure dependence Increase 2011-2012 vs 2010 Ratio (95% CI) ([2]; nMFI ratio at delivery, Mozambique, adjusted by parity, age, treatment and HIV): 0.88 (0.73; 1.07) | PW Mz vs PW Bcn Ratio (95% CI) ([2]; nMFI ratio, pregnant Mozambican women vs pregnant Spanish women (N=49)): 24.51 (18.53; 32.43) | Parasite density Low vs High ratio (95% CI) ([2]; nMFI ratio, below or above 200 genomes per microliter, adjusted): 1.18 (0.96; 1.46) | SeroPrev Delivery % ([3]; 239 pregnant Mozambican women followed 2011-2012): 89% | Seroprevalence MQ (%) ([3]; HIV infected): 92% | Seroprevalence K (%) ([3]; HIV infected, Kenya, at delivery): 95% | MQ (OR) ([3]; HIV infected, MQ, Placebo as reference): 0.6 (0.32; 1.12) | M (OR) ([3]; HIV infected, Mozambique, Kenya as reference): 0.76 (0.40; 1.45) | Seroprevalence M (%) ([3]; HIV infected, Mozambique, at delivery): 93% | Seroprevalence PL (%) ([3]; HIV infected, Placebo group): 95% | Seroprevalence A (%) ([3]; HIV infected, anemia): 92% | A (OR) ([3]; HIV infected, anemia, Non-A as reference): 0.79 (0.41; 1.51) | Seroprevalence Non-A (%) ([3]; HIV infected): 94% | Seroprevalence B (%) ([3]; HIV uninfected, Benin, at delivery): 100% | Seroprevalence G (%) ([3]; HIV uninfected, Gabon, at delivery): 82% | Seroprevalence MQ (%) ([3]; HIV uninfected): 96% | Seroprevalence SP (%) ([3]; HIV uninfected, IPTp with sulfadoxine-pyrimethamine): 96% | Seroprevalence M (%) ([3]; HIV uninfected, Mozambique, at delivery): 93% | Seroprevalence A (%) ([3]; HIV uninfected, anemia): 96% | Seroprevalence Non-A (%) ([3]; HIV uninfected): 96% | Seroprevalence in Tanzania ([3]; HIV-uninfected women, area of Tanzania where no malaria infection was observed): 42% | Seroprevalence 2003/4 (%) ([3]; Mozambican pregnant women at delivery, 2003/4): 99% | Seroprevalence 2005 (%) ([3]; Mozambican pregnant women at delivery, 2005): 98% | Seroprevalence 2010 (%) ([3]; Mozambican pregnant women at delivery, 2010): 93% | Seroprevalence 2011 (%) ([3]; Mozambican pregnant women at delivery, 2011): 89% | Seroprevalence 2012 (%) ([3]; Mozambican pregnant women at delivery, 2012): 92% | SeroPrev PW Bcn (%) ([3]; seroprevalence among pregnant Spanish women never exposed to malaria): 2% | Decrease (OR) ([3]; seroprevalence odds ratio 2010 vs 2003/5, Mozambique, adjusted): 0.24 (0.06; 0.93) | Increase (OR) ([3]; seroprevalence odds ratio 2011/12 vs 2010, Mozambique, adjusted): 0.58 (0.29; 1.16) | Antibody dynamics Sero-revertion weeks (95% CI) ([4]; time to sero-negativisation, seropositive at recruitment, no infection on follow-up): 544.49 (242.56; ∞) weeks | Antibody dynamics Time to double weeks (95% CI) ([4]; women with P. falciparum infection on follow-up, log-linear mixed-effects model): 91.65 (39.61; ∞) weeks
